Source: paper PMC8317929 (mAbs, 2021)

Key:
[1] = target: SARS-CoV RBD recombinant protein (SARS-CoV; strain of construct not …, UniProt Q19QX0); assay: BLI
[2] = target: SARS-CoV-2 RBD recombinant protein (SARS-CoV-2, Wuhan-Hu-1 (QHD43416.1), UniProt P0DTC2); assay: BLI

Binder	Kd [1] [nM]	Kd [2] [nM]	binding result [2]
MW06 (antibody, V domains shown) VH: EVQLLESGGGLVQPGGSLRLSCAASGFTFSSYAMNWVRQAPGKGLEWVSVISGSGGSTYYADSVRGRFTISRDNSKNTLYLQMNSLRAEDTAVYCCAKGYYYDSSGYYFREDAFDIWGQGTLVTVSS VL: DIQMTQSPSAMSASVGDRVTITCRASQGISNYLAWFQQKPGKVPKRLIYAASSLQSGVPSRFSGSGSGTEFTLTISSLQPEDFATYYCLQHNSYPYTFGQGTKLEIK	12.3	5.48	
MW05 (antibody, V domains shown) VH: EVQLVQSGAEVKKPGSSVKVSCKASGGTFSSYAISWVRQAPGQGLEWMGRIIPIFGSSNYAQKFQGRVTITADESTSTAYMELSSLRSEDTAVYYCAESPLGGGSGYSVSWFDPWGQGTLVTVSS VL: not shown			binds
